# Laboratory results reported in patent US20090130131A1.
# Like-named read-outs stand apart in the source and are kept apart here.
# Columns and labels:
# [1] = biological target: Influenza split vaccine A/New Caledonia/20/99 (H1N1)
# [2] = biological target: Influenza split vaccine A/New York/55/2004 (H3N2)
# [3] = biological target: Influenza split vaccine B/Shanghai/361/2002
# [4] = biological target: Influenza split vaccine A/New Caledonia/20/99 (H1N1); remark: listed apart in the source
# [5] = biological target: Influenza split vaccine A/New Caledonia/20/99 (H1N1); remark: listed apart in the source
Molecule,Coupling Ratio (%) [4] [%],Coupling Ratio (%) [5] [%],also measured
Synthetic AD vehicle SSF-28 (from UniProt P07988 201-260),–,–,Coupling Ratio (%) [1]: 83%; Coupling Ratio (%) [2]: 64.4%; Coupling Ratio (%) [3]: 87.9%
Synthetic AD vehicle SSF-30 (from UniProt P07988 220-260),91.3,–,–
FPIPLPYCWLCRALIKRIQAMIPKG [Synthetic AD vehicle SSF-14],57,–,–
RMLPQLVCRLVLRCSMD [Synthetic AD vehicle SSF-24],91.3,–,–
GIPFFPVHLKRLKLLLLLLLLILLLILGALLIGL [Synthetic AD vehicle SSF-47],–,86.9,–
PVHLKRLLLLLLLLLLLLLLLL [Synthetic AD vehicle SSF-44],–,72.8,–
KLLLLKLLLLKLLLLKLLLL [Synthetic AD vehicle SSF-45],–,64.8,–
FGIPSSPVHLKRLLILKLLLLKILLLKLGALLIGL [Synthetic AD vehicle SSF-48],–,66.3,–
IPCCPVHLKRLKLLLLLLLLILLLILGALLMGL [Synthetic AD vehicle SSF-46],–,76.2,–
